From publication PMC6141180, “The TAB1-p38α complex aggravates myocardial injury and can be targeted by small molecules” (JCI Insight, 2018)
fluorescein = fluorescein label (on the lysine ε-amine)

B1: MKK3b peptide, unlabeled (peptide)
peptide: Ac-GKSKRKKDLRISCMSKP-NH2
notes: stretch of MKK3b, the most abundant splice variant of MAP2K3; also called unlabeled MKK3b
B2: fluorescein-labeled MKK3b peptide (peptide)
peptide: Ac-GKSKRKKDLRISCMSKPK(fluorescein)-NH2
notes: stretch of MKK3b, the most abundant splice variant of MAP2K3; added C-terminal lysine that carries the fluorescein; also called C-terminal labelled MKK3b peptide

molecular target: T1, p38α (MAPK14), nonphosphorylated (mouse, UniProt P47811 1-360); assay: fluorescence polarisation; competition: unlabeled peptide titrated into 2 nM fluorescein-labeled MKK3b peptide and 10 μM p38α; 50 mM HEPES pH 7.4, 10 mM MgCl2, 1 mM Chaps, 1 mM DTT, 1% DMSO; ambient temperature, 20 minutes; conditions: both partners purified
T1 construct: mouse p38α (MAPK14); Also used as the target of the functional rows on co-expressed p38α (E. coli pETDuet-1 first cloning site; HEK293 plasmid not described); source: E. coli Rosetta II (pETDuet-1), purified
T1 sequence (P47811 whole entry): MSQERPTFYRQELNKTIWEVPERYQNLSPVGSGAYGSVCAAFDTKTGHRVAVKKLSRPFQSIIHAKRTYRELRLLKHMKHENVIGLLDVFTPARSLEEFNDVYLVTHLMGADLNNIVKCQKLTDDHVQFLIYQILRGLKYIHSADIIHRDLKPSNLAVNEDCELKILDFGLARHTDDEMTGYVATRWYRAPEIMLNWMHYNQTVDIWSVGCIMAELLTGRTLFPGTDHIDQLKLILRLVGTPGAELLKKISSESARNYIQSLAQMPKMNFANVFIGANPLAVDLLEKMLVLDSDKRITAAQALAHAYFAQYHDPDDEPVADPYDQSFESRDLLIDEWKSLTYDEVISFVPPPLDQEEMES

Q: Does Ac-RVYPVSVPYSSAQSTSKTSVTLSLVMPSQ-NH2 (also called TAB-1 peptide; TAB1 peptide) [TAB1 (residues 384–412) peptide] bind?
A: Result: binds

Q: Does B1 bind?
A: Result: binds

Q: Does B2 bind?
A: Result: binds
